Consider 1 molecule from publication PMC12121391, “Crystal structure of ATP-dependent DNA ligase from Rhizobium phage vB_RleM_P10VF”.

This data set deals with T1, P10VF-Lig (ATP-dependent DNA ligase) (Rhizobium phage vB_RleM_P10VF, UniProt A0A076YM08).
T1 sequence: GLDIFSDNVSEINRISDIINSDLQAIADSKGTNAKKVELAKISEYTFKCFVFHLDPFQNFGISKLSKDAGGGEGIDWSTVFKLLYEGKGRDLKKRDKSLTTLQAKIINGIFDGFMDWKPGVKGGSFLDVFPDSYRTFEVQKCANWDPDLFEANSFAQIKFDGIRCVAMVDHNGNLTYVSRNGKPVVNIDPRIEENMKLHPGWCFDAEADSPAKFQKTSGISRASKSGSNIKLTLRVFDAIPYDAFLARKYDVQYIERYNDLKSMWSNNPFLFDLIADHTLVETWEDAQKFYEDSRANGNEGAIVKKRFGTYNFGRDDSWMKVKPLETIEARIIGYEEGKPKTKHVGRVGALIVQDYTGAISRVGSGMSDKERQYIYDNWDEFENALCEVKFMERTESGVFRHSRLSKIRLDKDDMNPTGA
Briefly: X-ray crystallography; AMP transferred to the DNA 5'-phosphate (step 2 intermediate); EDTA 5 mM; 2.2 Å; Crystallization: protein in 50 mM Tris pH 7.5, 200 mM NaCl, 1 mM beta-mercaptoethanol; 1.2 eq nicked duplex, 5 mM EDTA, 30 min on ice; 24% PEG 4000, 100 mM bis-Tris pH 5.5, 4 °C (278 K in Table 2). As to conditions: protein: recombinant, SeMet-substituted, 21 bp, blunt ends.

B1: nicked DNA duplex (21 nt complement, 10 + 11 nt nicked strand) (dsDNA)
DNA 1: TTCCGACAGTGGGGTCGCAAT
DNA 2: ATTGCGACCC
DNA 3: CACTATCGGAA
modifications: 2'-O-methyl one nucleotide upstream of the 3' terminus at the nick (strand 2); 5'-phosphate at the nick (strand 3), adenylated (AMP) in the crystal
B1: the binding result is recorded as “binds”.
